Reference: patent US20260242478A1 (published 2026)
Where no end group is shown, it is not given here.

Assays:
[1] = molecular target: T1, Anti-CD28 Fab (SEQ ID NOs: 696, 697); assay: phage ELISA; biotinylated anti-CD28 Fab on neutravidin plate, clonal phage supernatant, anti-M13 HRP detection;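 further: crude supernatants of single phage clones picked after panning were screened for binding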
T1 construct: In the phage ELISA the Fab was biotinylated and captured on neutravidin coated plates
T1 sequence (VH, as listed by the source, chain 1 of 2): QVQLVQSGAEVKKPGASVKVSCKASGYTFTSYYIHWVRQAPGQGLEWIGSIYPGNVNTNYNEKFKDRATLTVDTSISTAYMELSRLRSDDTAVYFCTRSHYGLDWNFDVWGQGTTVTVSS
T1 sequence (VL, as listed by the source, chain 2 of 2): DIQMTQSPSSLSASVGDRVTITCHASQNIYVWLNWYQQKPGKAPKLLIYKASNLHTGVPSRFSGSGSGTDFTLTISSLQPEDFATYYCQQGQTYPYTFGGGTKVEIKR
Description: (§1) After panning, phage infected bacteria were plated out and colonies picked into 96 well blocks. Clonal phage was then amplified and separated from bacterial cells via centrifugation.
(§2) Clonal phage were harvested as crude supematants and screened via standard ELISAs. […] Prior to the addition of clonal phage, wells were incubated with blocking buffer and CD28 antigen or blocking buffer alone. Without washing or aspirating, clonal phage supematants were then added to the wells and incubated for a short time. Wells were then washed followed by detection of bound phage using a horse radish conjugated anti-M13 antibody. Clonal phage of interest were then sent for sequence analysis.

[2] = molecular target: T1, Anti-CD28 Fab (SEQ ID NOs: 696, 697); assay: phage ELISA; Fab-coated wells pre-incubated with CD28 antigen as competitor, anti-M13 HRP detection;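 further: crude clonal phage supernatants screened by ELISA, comparing wells pre-treated with CD28 antigen in blocker against wells given blocker only, bound phage read via HRP-linked anti-M13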
Description: as §1, §2

[3] = molecular target: Anti-CD28 Fab (SEQ ID NOs: 696, 697); assay: phage binding ELISA on anti-CD28 Fab; wells first incubated with CD28 antigen as competitor
Target sequence in this assay (VH, as listed by the source, chain 1 of 2): as the sequence (VH, as listed by the source, chain 1 of 2) above
Target sequence in this assay (VL, as listed by the source, chain 2 of 2): as the sequence (VL, as listed by the source, chain 2 of 2) above
Description: as §1, §2

[4] = molecular target: Anti-CD28 Fab (SEQ ID NOs: 696, 697); assay: phage binding ELISA; biotinylated anti-CD28 Fab on neutravidin plate, clonal phage supernatant, anti-M13 HRP detection
Target sequence in this assay (VH, as listed by the source, chain 1 of 2): as the sequence (VH, as listed by the source, chain 1 of 2) above
Target sequence in this assay (VL, as listed by the source, chain 2 of 2): as the sequence (VL, as listed by the source, chain 2 of 2) above

[5] = molecular target: Anti-CD28 Fab (SEQ ID NOs: 696, 697); assay: as above; remark: listed apart in the source
Target sequence in this assay (VH, as listed by the source, chain 1 of 2): as the sequence (VH, as listed by the source, chain 1 of 2) above
Target sequence in this assay (VL, as listed by the source, chain 2 of 2): as the sequence (VL, as listed by the source, chain 2 of 2) above

[6] = molecular target: Anti-CD28 Fab (SEQ ID NOs: 696, 697); assay: phage binding ELISA; captured anti-CD28 Fab pre-incubated with CD28 antigen as competitor, anti-M13 HRP detection
Target sequence in this assay (VH, as listed by the source, chain 1 of 2): as the sequence (VH, as listed by the source, chain 1 of 2) above
Target sequence in this assay (VL, as listed by the source, chain 2 of 2): as the sequence (VL, as listed by the source, chain 2 of 2) above

Binder	Anti-CD28 Fab signal in the presence of CD28 [3]	Anti-CD28 Fab signal (phage binding ELISA) [4]	Anti-CD28 Fab (SEQ ID NOs: 696, 697) signal [5]	Anti-CD28 Fab signal in the presence of CD28 [6]	other results
YCEGHSMEYMAKCL (tested as crude clonal phage supernatant) [Phage-745]	–	–	–	–	Anti-CD28 Fab signal (phage binding ELISA) [1]: 1.92; Anti-CD28 Fab signal in the presence of CD28 (phage binding ELISA) [2]: 0.07
YCEGHLSQYMEKCL [Phage-731]	0.08	1.95	–	–	–
YCDGHLIEYMYKCL [Phage-728]	0.09	1.95	–	–	–
YCMGHQPEYMQKCL (tested as crude clonal phage supernatant) [Phage-741]	–	–	–	–	Anti-CD28 Fab signal (phage binding ELISA) [1]: 1.93; Anti-CD28 Fab signal in the presence of CD28 (phage binding ELISA) [2]: 0.08
YCEGHSLEYMGKCL (cysteine pairing not given here; also: displayed on phage by fusion to pIII, pIII and linker sequence not given here) [Phage-703]	–	–	2.02	0.09	–
YCDGHSPEYMTKCL (tested as crude clonal phage supernatant) [Phage-744]	–	–	–	–	Anti-CD28 Fab signal (phage binding ELISA) [1]: 1.93; Anti-CD28 Fab signal in the presence of CD28 (phage binding ELISA) [2]: 0.07
YCDGHSHEYMEKCL (cysteine pairing not given here; also: displayed on phage by fusion to pIII, pIII and linker sequence not given here) [Phage-707]	–	–	2.01	0.06	–
YCEGHLPIYLSKCL [Phage-735]	0.08	1.94	–	–	–
YCSGHAPEYMAKCL (tested as crude clonal phage supernatant) [Phage-737]	–	–	–	–	Anti-CD28 Fab signal (phage binding ELISA) [1]: 1.94; Anti-CD28 Fab signal in the presence of CD28 (phage binding ELISA) [2]: 0.06
YCAGHLPEYMMKCL (cysteine pairing not given here; also: displayed on phage by fusion to pIII, pIII and linker sequence not given here) [Phage-698]	–	–	2.03	0.11	–
YCMGHAPEYMEKCL (tested as crude clonal phage supernatant) [Phage-740]	–	–	–	–	Anti-CD28 Fab signal (phage binding ELISA) [1]: 1.93; Anti-CD28 Fab signal in the presence of CD28 (phage binding ELISA) [2]: 0.07
YCDGHMGVYYWKCL (cysteine pairing not given here; also: displayed on phage by fusion to pIII, pIII and linker sequence not given here) [Phage-705]	–	–	2.01	0.09	–
YCEGHSPEYMTKCL (cysteine pairing not given here; also: displayed on phage by fusion to pIII, pIII and linker sequence not given here) [Phage-701]	–	–	2.02	0.08	–
YCEGHRAEYMEKCL (tested as crude clonal phage supernatant) [Phage-738]	–	–	–	–	Anti-CD28 Fab signal (phage binding ELISA) [1]: 1.93; Anti-CD28 Fab signal in the presence of CD28 (phage binding ELISA) [2]: 0.06
YCAGHSVEYMAKCL [Phage-725]	0.08	1.96	–	–	–
YCDGHMPEYMEKCL (tested as crude clonal phage supernatant) [Phage-742]	–	–	–	–	Anti-CD28 Fab signal (phage binding ELISA) [1]: 1.93; Anti-CD28 Fab signal in the presence of CD28 (phage binding ELISA) [2]: 0.09
YCAGHLEIYMNKCL [Phage-733]	0.07	1.94	–	–	–

Binder	Anti-CD28 Fab signal in the presence of CD28 [3]	Anti-CD28 Fab signal (phage binding ELISA) [4]	Anti-CD28 Fab (SEQ ID NOs: 696, 697) signal [5]	Anti-CD28 Fab signal in the presence of CD28 [6]	other results
YCDGHLVEYMSKCL [Phage-730]	0.08	1.95	–	–	–
YCDGHSPEHIRKCL [Phage-732]	0.11	1.94	–	–	–
YCDGHLPEYLGKCL [Phage-724]	0.08	1.96	–	–	–
YCDGHAPEYMEKCL (cysteine pairing not given here; also: displayed on phage by fusion to pIII, pIII and linker sequence not given here) [Phage-704]	–	–	2.01	0.09	–
YCEGHAREHMAKCL (cysteine pairing not given here; also: displayed on phage by fusion to pIII, pIII and linker sequence not given here) [Phage-700]	–	–	2.02	0.08	–
YCQGHLPEYMSKCL (cysteine pairing not given here; also: displayed on phage by fusion to pIII, pIII and linker sequence not given here) [Phage-708]	–	–	2.01	0.06	–
YCDGHLEQYRAKCL [Phage-723]	0.08	1.96	–	–	–
YCEGHLSEYMAKCL [Phage-734]	0.2	1.94	–	–	–
YCDGHEAQYMSKCL (cysteine pairing not given here; also: displayed on phage by fusion to pIII, pIII and linker sequence not given here) [Phage-706]	–	–	2.01	0.09	–
YCDGHSPDYIWKCL (tested as crude clonal phage supernatant) [Phage-739]	–	–	–	–	Anti-CD28 Fab signal (phage binding ELISA) [1]: 1.93; Anti-CD28 Fab signal in the presence of CD28 (phage binding ELISA) [2]: 0.1
YCDGHASEYMWKCL (tested as crude clonal phage supernatant) [Phage-736]	–	–	–	–	Anti-CD28 Fab signal (phage binding ELISA) [1]: 1.94; Anti-CD28 Fab signal in the presence of CD28 (phage binding ELISA) [2]: 0.06
YCEGHRPEYMQKCL (cysteine pairing not given here; also: displayed on phage by fusion to pIII, pIII and linker sequence not given here) [Phage-699]	–	–	2.03	0.11	–
YCDGHSSEYMIKCL [Phage-727]	0.06	1.95	–	–	–
YCEGHSIQYMAKCL (cysteine pairing not given here; also: displayed on phage by fusion to pIII, pIII and linker sequence not given here) [Phage-702]	–	–	2.02	0.06	–
YCDGHSALYMWKCL [Phage-726]	0.08	1.96	–	–	–
YCDGHSAEYLAKCL (tested as crude clonal phage supernatant) [Phage-743]	–	–	–	–	Anti-CD28 Fab signal (phage binding ELISA) [1]: 1.93; Anti-CD28 Fab signal in the presence of CD28 (phage binding ELISA) [2]: 0.08
YCDGHSAEYMQKCL [Phage-729]	0.07	1.95	–	–	–
